From publication PMC10607743, “An Enzymatic Strategy for the Selective Methylation of High-Value-Added Tetrahydroprotoberberine Alkaloids” (International Journal of Molecular Sciences, 2023)

Experiments:
[1] = target: T1, PsSOMT (Papaver somniferum, UniProt I3PLQ7); settings: 100 mM Tris-HCl, 37 °C, substrate 50-500 μM; methyl donor SAM (concentration and pH not given)
T1 construct: gene SOMT3

[2] = system: Oc1cc2c(cc1O)C1Cc3ccc(O)c(O)c3CN1CC2; assay: purified protein; settings: 100 mM Tris-HCl, 37 °C, substrate 50-500 μM, methyl donor SAM (concentration and pH not given)

T1 sequence (I3PLQ7 whole entry): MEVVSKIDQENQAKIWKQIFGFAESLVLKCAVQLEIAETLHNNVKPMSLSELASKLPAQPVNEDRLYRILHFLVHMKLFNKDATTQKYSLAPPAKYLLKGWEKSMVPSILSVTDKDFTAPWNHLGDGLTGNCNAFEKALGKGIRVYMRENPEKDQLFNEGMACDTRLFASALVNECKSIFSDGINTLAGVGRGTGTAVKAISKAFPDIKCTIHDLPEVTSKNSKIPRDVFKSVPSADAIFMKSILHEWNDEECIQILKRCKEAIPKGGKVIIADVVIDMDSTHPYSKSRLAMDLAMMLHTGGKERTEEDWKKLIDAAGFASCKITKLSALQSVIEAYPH

Molecule	Km [1] [µM]	Km [2] [µM]	Vmax [2] [µmol/min/mg]	kcat [2] [s⁻¹]	kcat/Km [2] [M⁻¹ s⁻¹]
Oc1cc2c(cc1O)C1Cc3ccc(O)c(O)c3CN1CC2 (centres unmarked) [2,3,9,10-tetrahydroxyberbine]	53.8 ± 12	–	–	–	–
Cj4’OMT (Coptis japonica)	–	83.50 ± 19.72	1.09	1.09 ± 0.08	13000
